Source: patent publication US7202089B2, “Early diagnosis of stroke” (priority 2001, dated 2007)

Assay: Fatty acid binding of fluorescently labeled I-FABP probes (fluorescence ratio)
Conditions: FFA binding; ADIFAB2 compared with ADIFAB
Protocol: In a preferred embodiment, a fluorescently-labeled FABP is acrylodan-derived recombinant rat intestinal fatty acid binding protein (referred to as ADIFAB). Derivatization with acrylodan was performed using known methods substantially as previously described (U.S. Pat. No. 5,470,714 & Richieri, G. V, et al., J. Biol. Chem., (1992) […]: 23495–23501), and ADIFAB is commercially available (FFA Sciences LLC, San Diego, Calif. ). Concentrations of FFAu can be determined by the binding of the FFAu to the fluorescently labeled fatty acid binding protein (FABP). […] The concentration of FFAu can be determined from the fluorescence difference. […] It will be understood that those skilled in the art can readily substitute other fluorescently-labeled FABP in the disclosed assay.
The assay for determination of FFAu levels in aqueous samples measures the intensity of a shift in fluorescence from a first wavelength, at which the derivatized FABP fluoresces when no FFA is bound, to a second wavelength, at which the derivatized FABP fluoresces when a molecule of FFA is bound, and the concentration of FFAu is then determined from the ratio (“R” value) of the two intensities of fluorescence wavelengths as described in U.S. Pat. No. 5,470,714 and Richieri, et al. (1995) J. Lipid Research, vol. […] Briefly, the ratio is calculated using the following formula: […]

binding affinities relative to ADIFAB: about 10 fold
B1: ADIFAB2: acrylodan-derivatized rat intestinal fatty acid binding protein (I-FABP) with substitution of Ala for Leu at position 72 (protein, UniProt P02693 2-132, looked up, variant L72A)
Fatty acid-binding protein, …: AFDGTWKVDRNENYEKFMEKMGINVVKRKLGAHDNLKLTITQEGNKFTVKESSNFRNIDVVFELGVDFAYSAADGTELTGTWTMEGNKLVGKFKRVDNGKELIAVREISGNELIQTYTYEGVEAKRIFKKE
modifications: acrylodan label
